# From patent US9228015B2, “Nogo receptor antagonists and methods of increasing neurite outgrowth” (Biogen Idec MA Inc., priority 2006, dated 2016)
# T1: OM-gp + sNogoR344-Fc (Rattus norvegicus, UniProt Q99M75, A303T/C287S/C43R/E284G/T53A)
# T1 construct: amino acid residues 26-344 of rat Nogo receptor-1; made in house; CHO (DG44) is described only for sNogoR310-Fc
# T1 sequence (Q99M75 26-344 C43R/T53A/E284G/C287S/A303T): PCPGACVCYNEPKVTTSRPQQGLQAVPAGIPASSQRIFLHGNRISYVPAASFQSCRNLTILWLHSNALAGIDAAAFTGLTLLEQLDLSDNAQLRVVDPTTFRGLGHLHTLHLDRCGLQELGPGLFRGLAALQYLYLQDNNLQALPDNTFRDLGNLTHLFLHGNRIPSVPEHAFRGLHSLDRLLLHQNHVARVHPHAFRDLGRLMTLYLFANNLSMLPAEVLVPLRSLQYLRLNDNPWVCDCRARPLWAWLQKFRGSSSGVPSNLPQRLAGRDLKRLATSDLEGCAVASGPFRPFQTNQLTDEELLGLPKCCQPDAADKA
# T2: Nogo66 + sNogoR344-Fc (Rattus norvegicus, UniProt Q99M75, A303T/C287S/C43R/E284G/T53A)
# T2 construct: amino acid residues 26-344 of rat Nogo receptor-1; made in house
# T2 sequence (Q99M75 26-344 C43R/T53A/E284G/C287S/A303T): T1 sequence (Q99M75 26-344 C43R/T53A/E284G/C287S/A303T)
# T3: MAG + sNogoR344-Fc (Rattus norvegicus, UniProt Q99M75, A303T/C287S/C43R/E284G/T53A)
# T3 construct: amino acid residues 26-344 of rat Nogo receptor-1; made in house; CHO (DG44) is described only for sNogoR310-Fc
# T3 sequence (Q99M75 26-344 C43R/T53A/E284G/C287S/A303T): T1 sequence (Q99M75 26-344 C43R/T53A/E284G/C287S/A303T)
# T4: cells expressing human Nogo receptor-1 (Homo sapiens, UniProt Q9BZR6)
# T4 construct: expressed in transfected cells; host or cells: COS-7 or 293 cells
# T4 sequence (Q9BZR6 27-447): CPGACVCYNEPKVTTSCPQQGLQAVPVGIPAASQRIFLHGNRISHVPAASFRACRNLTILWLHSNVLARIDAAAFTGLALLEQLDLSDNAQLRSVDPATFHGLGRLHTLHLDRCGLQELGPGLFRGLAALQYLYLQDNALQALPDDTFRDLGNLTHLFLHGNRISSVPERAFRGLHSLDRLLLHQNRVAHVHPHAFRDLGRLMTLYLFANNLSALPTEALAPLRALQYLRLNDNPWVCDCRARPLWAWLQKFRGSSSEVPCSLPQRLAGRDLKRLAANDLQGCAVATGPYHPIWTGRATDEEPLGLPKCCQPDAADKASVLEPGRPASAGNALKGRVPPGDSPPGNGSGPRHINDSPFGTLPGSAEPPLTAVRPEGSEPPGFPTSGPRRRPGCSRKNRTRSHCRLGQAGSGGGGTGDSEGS
# T5: mouse NgR1 (Mus musculus, UniProt Q99PI8)
# T5 sequence (Q99PI8 27-447): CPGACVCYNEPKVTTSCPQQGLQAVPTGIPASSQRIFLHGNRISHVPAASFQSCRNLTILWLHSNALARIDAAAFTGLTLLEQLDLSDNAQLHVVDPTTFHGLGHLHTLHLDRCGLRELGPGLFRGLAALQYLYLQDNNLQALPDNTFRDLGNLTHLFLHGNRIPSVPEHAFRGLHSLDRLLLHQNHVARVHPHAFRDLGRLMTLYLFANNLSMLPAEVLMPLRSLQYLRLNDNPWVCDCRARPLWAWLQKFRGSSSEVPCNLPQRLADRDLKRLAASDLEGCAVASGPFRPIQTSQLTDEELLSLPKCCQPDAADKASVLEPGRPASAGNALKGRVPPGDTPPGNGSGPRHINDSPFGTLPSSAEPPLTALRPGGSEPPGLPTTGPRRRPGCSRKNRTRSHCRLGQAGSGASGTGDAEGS
# B1: 7E11: murine monoclonal anti-Nogo receptor-1 antibody, immunogen rat Nogo receptor-1 residues 110-125, IgG1 kappa, ATCC PTA-4587 (antibody, V domains shown)
# VH: VQLQESGAELVMPGASVKMSCKASGYTFTDYWMHWVKQRPGQGLEWIGAIDPSDSYSSYNQNFKGKATLTVDGSSSTAYMQLSSLTSEDSAVYYCARRITEAGAWFAYWGQGTTVT
# VL: MKLPVRLLVLMFWIPASSSDVVMTQTPLSLPVSLGDQASISCRSSQSLVHSNGNTYLHWYLQKPGQSPKLLIYKVSNRFSGVPDRFSGSGSGTDFTLKISRVDAEDLGVYFCSQSTHVPFTFGGGTKLEIKRADAAPTVSISHH
# modifications: 7E11 heavy chain; 7E11 light chain
# notes: murine monoclonal anti-Nogo receptor-1 antibody, immunogen rat Nogo receptor-1 residues 110-125, IgG1 kappa, ATCC PTA-4587
# Key:
# OM-gp + sNogoR344-Fc = molecular target: T1, OM-gp + sNogoR344-Fc; experiment: ELISA: inhibition of OM-gp binding to sNogoR344-Fc
# Description: (§1) 0.5 μg of a soluble Nogo receptor-1 fusion protein comprising amino acid residues 26-344 of rat Nogo receptor-1 and the hinge and Fc region of the rat IgG1 molecule (sNogoR344-Fc) produced as described below was immobilized on […] of protein-A- or wheatgerm agglutinin-conjugated SPA beads (Amersham Pharmacia Biotech) for 2 hours at 25° C. SPA beads coupled with Fc-sNogoR-1, anti-Nogo receptor-1 mAb and 1 μl ^125I-Nogo66 (Amersham, 2000 Ci/mmol, 1 nM) in […] of the HEPES-buffered incubation medium (10 mM HEPES, pH 7.4, 0.1% bovine serum albumin, 0.1% ovalbumin, 2 mM MgCl2, 2 mM CaCl2 and protease inhibitors) was added to each sample well. After 16 hours, radioactivity was measured in quadruplicate samples using a TopCount® (Packard). IC50 values were calculated from a curve-fit analysis (FIG. 3) (PRISM, GraphPad Software, NJ). In some experiments, we also used AP-ligand conjugates (e.g. AP-Nogo66) and detected binding by monitoring alkaline phosphatase activity. We also assayed the ability of the mAbs to block binding of the ligands MAG-Fc and AP-OM-gp to Nogo receptor-1.
# (§2) Monoclonal antibodies 7E11, 5B10, 1H2, 3G5 and 2F7 all inhibited binding of Nogo66, MAG and OM-gp to sNogoR344-Fc. The calculated IC50 for Nogo66 for 7E11 and 1H2 were 400 nM and 60 nM, respectively. The data from ELISAs monitoring mAb-mediated inhibition of binding of the three ligands to Nogo receptor-1 are summarized in Table 6.
# (§3) The percent displacement is shown at 30 nM antibody and the EC50 for certain mAbs determined from curve-fit analysis as described. “-” indicates no detectable activity and “ND” indicates not determined.
# (§4) We also performed ELISA binding assays using the Fab-phage 141)5.
# Nogo66 + sNogoR344-Fc = molecular target: T2, Nogo66 + sNogoR344-Fc; experiment: ELISA: inhibition of Nogo66 binding to sNogoR344-Fc
# Description: as §1, §2, §3, §4
# MAG + sNogoR344-Fc = molecular target: T3, MAG + sNogoR344-Fc; experiment: ELISA: inhibition of MAG binding to sNogoR344-Fc
# Description: as §1, §2, §3, §4
# [1] = molecular target: T4, cells expressing human Nogo receptor-1; experiment: Immunohistochemistry on fixed and live COS-7 or 293 cells expressing human Nogo receptor-1; format: cell-based; conditions: immunohistochemical staining
# Description: To further characterize the binding properties of anti-Nogo receptor-1 mAbs produced as described in Example 1, we compared binding to both fixed and live COS-7 or 293 cells expressing rat or human Nogo receptor-1.
# Nogo receptor-1 transfected and non-transfected cells were plated in 8-well Lab-Tek™ culture slides, fixed with 4% paraformaldehyde for 15 minutes, blocked with 10% normal goat serum, 0.1% Triton X-100 in PBS for 1 hour. Mab 7E11 was added at 15 μg/ml and 1.5 μg/ml in blocking solution and incubated for 2 hours at room temperature; Alexa®-conjugated secondary antibody anti-mouse (Molecular Probes) was incubated at a 1:300 dilution in blocking solution for 1 hour; DAPI was added at 5 μg/ml to the secondary antibody to label all nuclei.
# Transfected and non-transfected cells were plated in 8 well Lab-Tek™ culture slides, blocked with FACS buffer (containing 4% donor horse serum) for 30 minutes at 4° C., incubated with 7E11 at 15 μg/ml and 1.5 μg/ml in FACS buffer for 1 hour at 4° C., rinsed and incubated with secondary antibody anti-mouse-Alexa® (1:300 in FACS buffer) for 30 minutes at 4° C.
# mouse NgR1 = molecular target: T5, mouse NgR1; experiment: Antibody binding specificity: mouse Nogo receptor-1
molecule,measurement,setting,value
B1,inhibition of binding of OM-gp to sNogoR344-Fc,OM-gp + sNogoR344-Fc,inhibited
same,EC50,OM-gp + sNogoR344-Fc; curve-fit analysis,150 nM
same,inhibition of binding of Nogo66 to sNogoR344-Fc,Nogo66 + sNogoR344-Fc,inhibited
same,EC50,Nogo66 + sNogoR344-Fc; curve-fit analysis,1700 nM
same,inhibition of binding of MAG to sNogoR344-Fc,MAG + sNogoR344-Fc,inhibited
same,MAG + sNogoR344-Fc: percent displacement,MAG + sNogoR344-Fc; 30 nM antibody,30 nM (60%)
same,EC50,MAG + sNogoR344-Fc; curve-fit analysis,500 nM
same,binding to fixed and live cells expressing human Nogo receptor-1,[1],bound
same,binding to mouse Nogo receptor-1,mouse NgR1,not and poorly
